This data set in a line: protease stability score; higher = more stable; yeast display proteolysis, trypsin and chymotrypsin.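 Further: log10 excess protease needed over predicted unfolded state with 0 meaning unfolded.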

Consider “DEELEDLASRIWKAIDHNNPDELKRNFDENVNAQVGDTTYHGMDDWAREIVHNLKEMRIHWSDMRVSKQGEQVRIKARFVTKHNGRPQNMRMTAVFEAHNGRVQDYKQNNRG”, for which the protease stability score was -0.27. Turning to “DEELEDRWRKMLEARKTGDEDRIKENMDPNAELNVGDKTYHGHDKLAKTLVDEMRTIRVEYKKFSMDARGDTVEAKYRVIENHNGKPQEDTHRWSATNRGDKIQHVDVRSDK”, the protease stability score was -0.435.

As for “DEELEEQVKEFFHAIETGDEDKLRELADPNARFHVGEKNLHGMKDVAERIRREREHIRYTVQIDSIKADGNRAHVRVVAEKEHNGNPRHFVLNVEIVRHNGRIRKVEATEDK”, the protease stability score turned out to be 0.938. As for “DEELEHILKDILKAQKHNDEKRLEELFDPNVHFEVGDKRYNGMSRFAHELAQTQKEIKWRVQWQTWDVQGNKATMQAEAVFEVNGRPFRYTYQARVQVKNGKVKRHEIHVDPQQLRDQNS”, the figure is -0.087. In the case of “DEELEKHADTLFEAWNHNDPKTVMKMFDPNAHVDVGDHRFRGREDLHDKMSEIQEHARLRVDVKDVKAQGEKATVRFSIEINYNGKPTQDDVVQDMEVRNGRIKRLSYRTDK”, the protease stability score is -0.13. “DEELERQFHEFLKALETNDPHRMRQLVDPNARIRVGDKRYHGMEEYAKDVVKKMEEARVSIDIKSIEVQGNHFVVEHEITRDQNGKPKTHRQRMFFTVKNGKVKEMQIEDQK”: the protease stability score amounted to 0.596.

Sequence “DEELFELLRELLKAEQTGDEERLSQLVDKDVSVKIGDHVIHGRDQFAKHASERHKQMDVKVRIDSYEVRGDQVEASMTVVHDHNGRPHKDTVTLQAKYDNGKIKEMRFDFDTTVLKKIES” displayed a protease stability score of 0.609. In turn, “DEELHEVVERLLQALRNGDPDQFKKNVDPNVKIVVGETQYHGREEAAHQLHQEHNNSSFQYVSVDVQVHGNKVVIDQRRRETQNGQPDSENFSEEAEAHNGKFKHIRQRSTK” displayed a protease stability score of -0.235. “DEELHEWVKEYLKALQHNDPNQFKRLADPNVRYHVGDKEVHGREEWAKLVEKRRDSMRLEMKSVSIDAQGNKARVRLRFVEEHDGRPKEFEADFDFHVSNGKLVTVKVDEDQ” registered a protease stability score of 0.123. As for “DEELHTIANEFNKALDRGDRKKLVDLADPNAQAVVGDQTLHGMEHVAHTIKKRQEEMRLDLKSVSVSVKGNNAILNFNALLHVNGKPVEISMRIILTVSNGKIQVIVEQFDPEQMRTARK”, the figure is -0.289. As for “DEELIKLAHELLRVFRRGDEDRFRQLVDPNARLQVGDTTLHGRENLAHHLRQVREHIRVDIKIDSMTAKGNKVDIKAKMNLEHNGRPDEKTVNFNVDVHNGKVHQMSFDVDS”, the figure is 0.714; as for “DEELITSANEMLQQLTTGNPQEIEKQADPNARVVVGDKTYTGMDQMARDRATEVQQIRRSFRIKTVQNQGDNANIHAEYEFNINGQPRTFELTLNVEAHNGKFVHIKYHLDPDHLNKLES”, -0.078.

Regarding “DEELKERYERQEKAFENGDPDQAEDMMDPNVHVDVGNKELHGREEIVRDLHNVLQNWRFDRKVDSVNNRGDKLEVDAKQTLNVNGKPFHWHFTIVARAHNGKLKSQTVEMDPDTNRKIQS”, the protease stability score was -0.057.

“DEELKKQMDEALKARQNNDEQRLRDLFDPNVHIQVGDKVITGREEYAKRVVTTLRQLRFKYTVKSVKTKPNHIEIDVEVHNNRNGNPSNRKIVINMEADNGKISHLSVEHDG” showed a protease stability score of 0.585. Sequence “DEELKKTATEFNKALNQNDEKRLKTLADPNATFVVGDEVIHGMDHVNKHQHDLKRNLRISIDVRDMKNSGPQAHVNAQVVFEIDGRPRQVEINYIITYHNGKVKKVRVDMDPEQLKEIKK” came in with a protease stability score of 1.08. “DEELKKVVDRMMKAITEGNPDKVRHLMDKDVKVDIGDKRIQGNEQNARDNEKSQNHLEESLDVKRVDNKGDKATVHLTVHVNHNGKPETFKLDIHVQAHNGKVKNMNFQKRP” had a protease stability score of -0.076. In the case of “DEELKKWFHHWVRAMERGDEQELRNQADPNAKFKIGDKTYHGMDEFARQVVQELRHLRVHIRFKRVRNEPGRLSVDATVVREHNGKPDSYRQKASATYHNGKLTNMTINKDK”, the protease stability score was found to be 0.735. As for “DEELLELFERWVDAVHNNDKEQLKRLMDPNVKFQIGDKRWEGREKLVKDIADEQRQIRVRYRVDTMDATNGRADVHAKVEIEVNGKPISFRVRVFMEVHNGKVKSIVWNIPEDDMKKLQK”, the figure is 1.63; as for “DEELLELVRRWITAVRTNDPKQLEKNFDPNAKFEYGDKSVRGKEQVVREQEKQVQEIRFSYRISDFRVDNGRVEMEVKVHEKHNGRPDTKTVKWKAEMSNGRLVWMRMQKRQ”, 0.412; as for “DEELLERIKRIMHSGNFTELANQMDKDAKIIIGDKVLHGREQVEEWYDHLEREVDHVEVHTMTIHNGHLTVHMRMTINGKTFKVIMVIEVHNGRVKRVEVRVTDPNVQKWLKSILQ”, 1.26. Regarding “DEELLHRIRDFLRAVRHGDSDHLRQLMDEDVKMTVGDHEIHGRERILDKIKQTRDEQRIHIQVRSMHADGDKATVHADIENEHNGQPQTAKLRMTVQVENGRIKQIDVEIKQ”, the protease stability score was found to be 0.904.

In the case of “DEELLKELLKYLKVREHGDKDKFERMADPNAKIHVGDREVHGREHLAKEIKTEKEEMEVSVDRYTQRVNGDKARLKVDFKVEHNGKPERRAHVLVMHTHNGKIKSLKAQDTD”, the protease stability score is -0.111. To “DEELLKEWETLVEDNNEQDLSKMADEDARVNVGDKHYHGRENVEKFITTLAQRIDRIDIKTVDNDGEKVRIDMIAKFNGHQLRVVLEMQAHNGRVKVINARATNEDQEKLWKDLVD” belongs 0.798.

In the case of “DEELLKIAKQFFEAEQNGDEDELKEQMDPNANLEYGDRTVHGRENIARWVSRVLREARIDFKEISVQDHNGRAKIHVRFVIDVNGRPNRMTRIVVVEQHNGRIKYLNIRMSEEQLKKLKE”, the protease stability score was found to be 0.132. In the case of “DEELLRNLEEVFKKNNFSTLANLADKDATLIVGDKVYKGKQQVRDWANELDERIDHVSIHSIDNQGDTMVARMVLNVDGVNAEFTLSVEISNGRVQVISLKVTDDEVKDQISKMES”, the protease stability score worked out at 0.953. The sequence “DEELMKTVHDLYSNLRQNDEHKFDELVDPNASLRVGDKRLHGREQIHDELKRQNEEIHVSRQMKEMTVHNGRADVNIRASETHNGQPDEFTIDATFELHNGRFISIDIKKRP” registered a protease stability score of -0.529. For the sequence “DEELNHQVHSFIKNVRQGNPKEAVKQADPNVRVQVGNKVINGRENMEKWYREMKREMRIVIKVDRIRAHNGRAEATYKVEYDVNGKPYTNTNSMHVEAHNGRIVSIYEDFDETHLREVQS”, the protease stability score was -0.367.

In turn, “DEELQDRFRRMIRIREEGDEQKLNEQVDPNVRLRVGDKEIKGREQLEEDQKRKNKQMRIRIKHLEVEAQGNKVRVSIHMTMRVNGRPFHFEFTANYTYHNGKLKHADVNIDPDFVREVHQ” returned a protease stability score of 0.027. With “DEELQDTAHKLLKLRQRGNWKHVQEMFDENARRIVGDKTLTGMTEIAEEVKREHEQWHLKITDLKASVEGDKVDIKFHAVFDVNGHPVTVNAMVVIVNQGDKAKRIQIRIPESVLNRINQ”, the protease stability score came to 0.292. Turning to “DEELQEEIEKFWKQLEFGNEDSLEKLMDPNAEMRVGDHTLHGRDSIAKELRRRQEEQRVDIHSYKLSAHNGRVTVNIDATFNHNGNPDRKIQRASLEISNGKLKRMDVRDEQ”, the protease stability score was -0.046. In turn, “DEELQELATRQMEALHTNDEKQWVDLFDPNARQRYGDKTIKGREQFSQHLRDMQRHMRVQIHTFSAQVSNGDIHLKIDQLNNVNGTPYRDTVHLEFRVHNGRVKEVILHVSEDQQKKIER” yielded a protease stability score of 0.918.

For the sequence “DEELQENAEHFMDDLKTGNEDSIKQNADPNAHFQIGDKTFHGREDFVKHIKKQRQHARIQLDVKNIDVQGDHVTINANVIVNVDGRPQSADVTILIRYHNGRIHTVLYSFSEKDKKKMES”, the protease stability score worked out at 0.872. For the sequence “DEELQENAEHLVKAMNKGDREEISRQVDKNASVEIGDQELHGREDIRRFFHEVHEEMRFHIEIKTVDVKGNEVTVHAEAENDDNGRPQTNEVDIDIKVKNGKITSMRIQYNS”, the protease stability score is -0.539. The sequence “DEELQKLVDDLLQALRSNNPEQFENNFDPNAKIRYGEKDVHGRTRFVKELQRERDDARFRIETYRVDNQGDKASLKMVFQRDHNGQPQRHTARAEIVVKNGKVQTAVFNFDS” came in with a protease stability score of -0.018.

With “DEELQKMVEQFFRNEQNGNRDQLKRLADPNVNFQYGDKTIHGMDTFLQRQRERHEDSRQDFKSIDMKVQGDKVRVTAVLEQETDGQPERFRREMTVEAHNGKIKSVNVQHSQ”, the protease stability score is -0.082. To “DEELQSDVEEFLRNQTTGDEDRLKELADENAKVHVGDKTLHGMDQIKRYERQEREEMRIDYKHWDIKVSGNQVTVHFDFVNRFNGKPQHVSVILHVQFDNGKIKAADYRTDPREREKIRS” belongs -0.463. “DEELQSQAERFLKNLQRGDETKLLQQMDPNAKMQYGDKTVHGRERLRTWVKHVKDEMRVQVDKFRQTVSGNHIRFDWDATFNINGTPDKIRIDVDIQVHNGRIKLITFRVSEEQTKRLHS” returned a protease stability score of 0.371.

In turn, “DEELRKLAEQLVTIFQTGNEHHVQELMDPNAKLQIGDTEFKGREEYVKEVKKRRDEMRFSIKKVKVDAHGDKIDIKIHMTMKHDGKPRDYVVTVHLRVQGDKIKSAHYQDTK” registered a protease stability score of 0.155.

“DEELRKNFHTFLELMKNGNPEKLAEMADPNVRVNIGDEQLRGKHRLHQHARHLKHSLRFDYQSVDVKVTGNRVDANLRVVVKVNGKPIDYTVKIHITWRNGKIKTMEIKIPEDDQKKMRR” came in with a protease stability score of -0.089.

For the sequence “DEELRKQAEELLKARKTNDERQNEELFDPNAHVRYGDRTLHGNEQASKDIADRLEEIRVSMSVEKVEVQGEHVRLEFKFEFEVNGRPQTQTATEEMTVHNGRIKEVRLNVSEEQKRRYKK”, the protease stability score is -0.026. “DEELRKQAEEVMKAWQHGDEKTYMDLFDPNAKWEYGDDNITGRENMSDYMRKVRKEIRVHVQSVEVRAHNGRLEVVATEEREHNGRPDTVTVIMEAKAHNGKIQVVRVEERQ” returned a protease stability score of 0.404. Regarding “DEELRRRLEKFFRDLRNGNESEAVKLVDPNARFNIGDTEYHGMHDYARELLRQRHKLNWHVRQVTIEAKNGHVNITMSVQFNVNGRPDSYTNTVRAVLHNGRVKEMSNRVPKDQLHKIKK”, the protease stability score amounted to 0.209. Sequence “DEELSKRAKHLIEMMKTGDEKEIQKQMDKDVKIDIGDKTIKGREDAAEQWRNRVEKIRWSLTIRHVNVQGNHVTMNVEVHLNVNGQPNRYTIEISFTFHNGKIVYISVSFDEDTEEKAKK” yielded a protease stability score of 1.18. The sequence “DEELTKRAQKQINVLRTGDEKKVLELMDPNAKLSVGEKEYHGMEDIAKTLAQENRQMRIDVKDMKFTSKGDTVDVTLSYVVDHNGQPDEQVVRVHIVAHNGKIKSQEVRRDS” gave a protease stability score of -0.762. As for “DEELVDQVKSFIELLQKGNEDELMKQLDEDAKIHYGDKTIHGREQVREWVKRFKDEMRQKIDSVQFREKPNRVSMKADMSYTQNGTPHDQQIDATFRAHNGRIKQVNIQLTK”, the protease stability score is -0.084. On to “DEELVEQLKKMYENEKNGDPDKVHEQFDKDARIDIGEKQVRGRDQASREAERERKQINVEIKHVDIKAHNGRATIDMVIVFNINGQPHRRRVTVYAVLHNGKIKSMSRHMDPSEQDQLTQ”, for which the protease stability score worked out at 0.343. “DEELVKRAEDMIKAIQRGDEDRINQMVDPNADVRVGDQRYDGMHEYVTRLKSRQKRMRRSVSVESVTAKNGQVRIDAKMTRNDNGRPERFKHIIIIKAENGEIQVIHVHKSQ” returned a protease stability score of -0.078.

These data come from the NTF2 design screens of Basanta et al. (2020).
